Assay results: the domain aggregation screens of Martell et al. (2025)

Test: soluble fraction after stress (log2 fold change); higher = more stays soluble; pooled small domains, quantitative proteomics
Details: stress: 75 degC
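Further: 20 min heating vs room temperature control held 20 min.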

Sequence | soluble fraction (log2)
HMGDWITGTVTRIADNGWGTFQPENAHNTVSIPPKMVADNQLKEADSIKIIAEPSPDGTKTFIKAISRE | 0.113
HMGEDSEPVQVPDVTGQPLWEARRTLSSMGLKVLDDGGSGSVTAQMPSAGATLRNGGQMMLYTYDEALPE | 0.126
HMGEEIRTWTDAQGRKIEARMSMLDGDQVLLELKDGRKIPYPLAKLSADDAHYARHFASASASD | -0.0336
HMGEFVQLKNRTGSVIEAKILNYQNGKVKLQRKDGVIFVVPISIFDRMSSSIIENKAKEMDSF | -0.263
HMGEIHAQIPGLVSHLFVKEGNTVQVEQKLFILEAMKMENEIDSPIQGTVKRIHIATGSKVEKGDLIMEIS | -1.47
HMGEKFTFGQIAKAKAYAKTYANDMTSAVKNIEAIATGLSKHPEVADTLKKANENQELNRITKLAG | -0.0289
HMGEKPTEITLSNAISVQELAEKLYVSETDIIRTLFLDGIIVNINQVLDLETAVKVGDQLGVTITIVE | -1.33
HMGEKTVPNVIGQKLATAKQLLEKEGLTVGSTSYNKNQADKDTVLSTDPAPGSHLSEGAKVNLTLSSGA | 0.0786
HMGEKVIAVSGGFDPIHVGHLRMMQDAAQHGRLVVIVNSDEWLLKKKGYVFMPWEERAELIGAYDFVDE | -0.964
HMGELDPKIIAQINTFLQGITKLIEHPGNKDAKKTALGALHKLTFDQNITANFGKQLGQLDQVIQSSEET | 0.0337
HMGELGPGSRGQAVRALQERLMALGFPLARFGADGIFGRETTGALRAFQHVAGLSPTGLGDHETLKWLGII | -1.33
HMGELTNALATLSERERDVARLVAQGLDNRQIAAQLFLSEGTVRNRISDILDKLALTNRTQLAIAWLHAE | -1.4
HMGEPTLTIRVVSYNPQSGEMVVVARDPLSGRYALATLNVRTGAGQMIGPQGELLPIENFALGS | -1.65
HMGEQVAVPDVTKKSVREVNNILTSAGLRLQIEGSGISVRQDPPADTMVAPDTVVTVSFEPP | 0.118
HMGEQVFSRKDLAINGNDLKAVFGWPPGPKYREALDQLFHWVLEDPARNRRETLLAYLHSLYD | -0.136
HMGESEKTLELVSQKDALVDEAFFFVRFQALLESNKTKGAQDLLDQSNHLSAAKLLQANAYLDIV | 0.44
HMGESFEELAREISDDTGSKTEGGETGLFPRGVMAPQFEEAAFLLKVGDISEPIRTKFGYHIIKLKEIKP | -0.0117
HMGESVVVPDLRGKTLEEARAILKKVDLDYEINDSTYSKTAVPGTIRDIVPAPGSHVKAGRILFVSING | -0.553
HMGETISVPAVRSLAYDRAVDMLTAEGLKGIVADSVYDNRTQPGTVIEQNPKAGTIVKEGREVYLTINA | 0.275
HMGFAPEAAREEVAQLIGQRGRAVTVLRPSGQVEIAGRRFEATVEVGAVDAGDTIVVRGQTAFALLVEKAD | -0.292
HMGFKLQRYTTFVVERLKKYQDTPAAQMHDLLKEHYPDFPAVSPKTVYNYVMKIRQEHGLPAV | -4.26
HMGFSERLAQAMSHAGYTQGGLAKAVGMAQSSVNKLLNNANSSRKTVEIASVLGVRPEWLSTGEGDML | -0.092
HMGFSKGKRDLIRMIKLAIRELADDNGRAQIEDVITRLVQEGHSRDEIRLQIDMFLRQGEAMEPKQGIIKL | -1.08
HMGFSLEQFGTDPDLKKIVENAFERIITASEGRIFKSDFSSNNSALPLEIFSFLIAVILLKLSGMN | -0.157
HMGFVATRSRKFLPFSEARAITRGLGFSNQKDYKEWIKGNGNELLLPFNPWRTYGDSGWKGWKDFLGTDKA | -1.39
HMGFYDLFINLADKVGSLADVTQILAEARINLVNVHILEIREEIDGIAQLTFSSEKDRQKALELLKTKYK | -1.87
HMGGDFVEHLKDLASEAPVIRLVNTIIGRVIDLRASDIHLEPFDDGLHVRYRVDGVIHPGELVPPRLS | 0.0444
HMGGEGQIEIREREGIPAEAWVDGVMRGQTPLRVEHVSIGTRRVELRAEGRPPVAADVLVRPTVTALVELS | 0.263

Sequence | soluble fraction (log2)
HMGGEHPIPEDWAVNEANYEHGAKFYGYTRAHVDAEAQAFRDQYAANGKKYVDWDAHFRTFMRWQNERRYG | -0.0635
HMGGEPVSARVPDTLHGARLDATAAALFPDFSRSRLAEWIKAGRLRRNDQPAKPRDKVAVDDHLLLIPEY | 0.0937
HMGGFSVTAEAFDGTPEVGKTVGFTAGSTKIKVEDTKGDATFGTILEKETVGFGEGKYTYFYIGL | -0.428
HMGGKAITGGEGEIIIRADKAETVAIYGIDGRLVHRVSTEAGDTKRVSVPAGIYIVKGAKVVV | 0.179
HMGGKTAVVTGSLVNVRKGPGTGNALVGQVARGDELPVLGQDGDWYQIKLANGSNGWVAGWLVSLKDAVP | 0.334
HMGGLIDQSIQEIIDKYSVPGKKIQKAQRLKIVAEMHTKGIFKMRGGVQQAAQALGVTRYTVYNDLEVMN | -3.08
HMGGLLSVIQKKAINNVKDRYSENAIKSMTKVQLHDLIKAETSRLLDPANAKETPEYQAFLEE | -0.0634
HMGGLSAEQKNGIQSVLKNFDPKNLTSADAKSITSEFKKLGVQPGKDLETTMAASGFDAKEVGRLAF | 0.106
HMGGPRDVPYSTFLIEVEKGQVAEVTIQDHKITGTYKNSNEPFITNAPDDPDLVSRLIKYGVGVQAKPPE | 0.0896
HMGGREEAGTDIARLLGYINDIHGEELIAKLEYYQKMLGSENFAVLMSRLPDGQKKELREQNLYSEYV | -0.152
HMGGRRHANMSREEEAAFLAPFFEKAAQGGILVVREIRQALDAHLGRTVPLSTVYNLLHRHNWRKL | -3.39
HMGGRTITVGISENMTVKDIAQMLEEKGLIEDARLFVVQELLSAYHKEIKPGIYDLSTDMTAAQMLEIMS | -0.443
HMGGSIDITTAPPGAKIYLDADYYGKTPKRLENISAGTYRLHLLHPEKGEVYRSVTLNEKNGTLKIDENLN | 0.0541
HMGGTATDYYNQGRTAYDVGDYNGALMNFQEAVRLDPRYGEAYYGLGKAYEALNMQNQALDAYLSAI | -0.529
HMGGVSTDKPLNWDADGTSKLTQEQIDYLRSTYDLSDMSKQDYYDLMADLTNMNAISIKDVISQYVK | -0.0294
HMGGYVVVGDKDGFWSVVSTPVSKAKAEELLKDTTFPKGEKGKIVSVAEAMSHKKVIGKEYLESGGT | 0.0752
HMGHASPGNREALQFALERHQARAAEFAEKAGLSIANASTKFKQLWEQGFLMRNESVADSGGVEFLYQR | -0.113
HMGHEISLNNSRFLKLLNKTKISISNDDTRHYLNGIFLHLTEAHGRQFLTGVATDSHRLSSSSLEID | -0.206
HMGHRQRRARARNRSMLEDIPGLGPKRRQQLLRQFGGLPQLMRAGVAELSQVPGISDSLARKIHAELHPES | -2.73
HMGHYGQMTRDLIEKAKTYEEGEEKAALVLTIANLMKRHYLTWNRATVENTLIAEQLKEMSEGALTLPEDV | -0.956
HMGIAEGSSVFVRVLAAEDGGRYTVSFAGRRFSVLSRQALGIGSAFRADVKVEKGQVLLVPR | -2.95
HMGIAERKEKQKLEIRNAILEASRKLIVEEGFEKVTMRKIADLIEYSPTTVYLYFKDKNEILFHLHQ | -1.54
HMGIDVSAFSDTALEVLRLQAAGYTTREIAQQLHITQRTVKYHASENYRKLDARNLVDAVQIAQSLHI | -1.5
HMGIEIKLLMSFMTDSGRKVSLFVTDPREDVTETEIKQVMDLIIEKNIFAPNGEDIVSAKEAKIVQT | -1.35
HMGIERTNADTSFSVNVYGKELIITSNKPLVVNIYAIDGTLVRTEQVTIGVNTVSGLPSGIYVVGQQKVVI | -1.1
HMGIIVDMSKIKQMLQLSEAGHSNRKIALELGINKETVNNYMQLIRNGRLDIRQLLKMDDPELERRFHA | -0.965
HMGIKLSDRQMQIVEIVKSQQPITSEQVAERLNLTRAALRSDLSILTMAGILEARPKVGYSLTGR | -1.97
